The target in this data set is T1, Rfa2-His from WT cells (HT41), dephosphorylated G1 form (Candida albicans, UniProt Q59Z33 1-272).
T1 sequence: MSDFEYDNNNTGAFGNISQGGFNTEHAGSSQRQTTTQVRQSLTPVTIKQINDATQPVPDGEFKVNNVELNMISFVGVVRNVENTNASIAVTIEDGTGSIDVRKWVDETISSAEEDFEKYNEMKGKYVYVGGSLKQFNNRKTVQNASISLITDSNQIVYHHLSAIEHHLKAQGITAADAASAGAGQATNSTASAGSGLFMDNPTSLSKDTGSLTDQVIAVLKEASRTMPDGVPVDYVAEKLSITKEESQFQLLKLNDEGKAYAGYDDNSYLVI
Put plainly: EMSA. Background: In EMSA bound probe runs differently from free probe, usually more slowly.

Data on 1 molecule can be found in publication PMC3542820.

B1: FITC-dsDNA 30 bp (dsDNA)
DNA 1: CCCCTCTCCTTCTTGGCCTCTTCCTTCCCC
DNA 2: GGGGAAGGAAGAGGCCAAGAAGGAGAGGGG
As for B1, the binding result is “binds”.
